In patent US5686073 one finds percent immunoprecipitated data, which are given here for 6 molecules.

The target in assay [1] is dystrophin (rabbit). Description: co-immunoprecipitation with dystrophin on XIXC2-Sepharose from untreated complex.
Assay [2] concerns the target 50 kDa dystrophin-associated glycoprotein (rabbit). In words: co-immunoprecipitation with the 50 kDa glycoprotein on IVD31-Sepharose from untreated complex.
The target in assay [3] is dystrophin (rabbit). Description: co-immunoprecipitation with dystrophin on XIXC2-Sepharose from alkaline-treated complex.
Assay [4] has as its target 50 kDa dystrophin-associated glycoprotein (rabbit). In words: co-immunoprecipitation with the 50 kDa glycoprotein on IVD31-Sepharose from alkaline-treated complex.

In the case of 59 kDa dystrophin-associated protein, the percent immunoprecipitated with dystrophin (rabbit) [1] was 96%; in assay [2], 96%; with dystrophin (rabbit) [3] it was 51%.

For “35 kDa dystrophin-associated glycoprotein”, the percent immunoprecipitated (in assay [4]; with dystrophin (rabbit) [1]; in assay [2]) was 96% throughout.

For the molecule dystrophin, the percent immunoprecipitated in assay [2] came out at 99%.

Turning to “43 kDa dystrophin-associated glycoprotein (from UniProt Q28685)”, the percent immunoprecipitated (in assay [4]; in the assay with dystrophin (rabbit) [1]; in assay [2]) was 96% throughout.

For the molecule “156 kDa dystrophin-associated glycoprotein (from UniProt Q28685)”, the percent immunoprecipitated with dystrophin (rabbit) [1] was 63%; in assay [2], 85%.

B1: 50 kDa dystrophin-associated glycoprotein (protein)
chain: GPGGTEAQQTTLYPLVGRVFVHTLEPASFLHLPEHAAPATIPVTYHAHLQGHPDLPRWLRYTQRSPHHPGFLYGAATPEDRGRQVIEVTAYNRDSFDTAGQSLVLLIRDPEGSPLPYQTEFLVRSHDVEEVLPPTPASHFLTALAGLWEPGELKLLNITSALDRGGRVPLPIGGQKEGVYIKVGSASPFSTCLKMVASPDSHARCARGQPPLLSCYDTLAPHFRVDWCNVSLVDTSVPEPVDEVPTPGDGILEHDPFFCPPTEATARDFLADALVTLLVPLLVALLLALLLAYIMCCRREGRLKRDLATSDIQMVHHCTIHENTEELRQMAASREVPRPLFPLPMFNVRTGERMPPRVDSAQVPLILDQH
B1 registered a percent immunoprecipitated in the assay with dystrophin (rabbit) [1] of 96%.
